Results as given in the RNAGym collection of RNA variant scans (doi:10.7554/elife.80360).

B1: Twister Ribozyme (parent)
chain: AACACUGCCAAUGCCGGUCCCAAGCCCGGAUAAAAGUGGAGGGGGCGG

Variants of: B1
Experiment: self-cleavage, relative activity (ratio to wild type); higher = more cleavage; co-transcriptional

Variant | self-cleavage
U6A C15G | 0.0866
U6A C15A | 0.358
U6C A32U | 0.488
U6C A32C | 0.349
G7C A33C | 0.0837
G7C A33G | 0.064
G7C A33U | 0.0354
C5U G24U | 0.0614
G7A C15A | 0.111
G7A C15U | 0.377
U6G G16C | 0.156
U6G G16U | 0.296
U6A U18C | 0.208
G7A A11U | 0.573
G7A A11G | 0.48
U6G U31G | 0.429
C5U G41C | 0.137
C5U G41U | 0.221
C5U G17A | 0.237
C5U C20U | 0.816
C5U C20A | 0.105
U6A A35U | 0.992
U6A A35G | 0.807
U6G A34U | 0.493

Variant | self-cleavage
U6G C14A | 0.313
U6G C14G | 0.0983
G7A C20G | 0.0749
G7A C20A | 0.0724
U6G A23C | 0.0334
U6G A23G | 0.0873
U6G A11C | 0.173
U6G A11G | 0.52
U6G G28U | 0.0702
U6G G28A | 0.138
U6G G28C | 0.16
U6C G38C | 0.249
U6C G38A | 0.423
U6G G45A | 0.141
G7A C27U | 0.11
G7A C27G | 0.0632
G7A G45C | 0.139
G7A G45A | 0.397
G7C A32U | 0.0629
U6A G17U | 0.101
U6A G39U | 0.125
C5U G45U | 0.423
C5U G45C | 0.239
U6A U12G | 0.903

Variant | self-cleavage
U6A U12C | 1.11
G7C A35G | 0.0589
U6G G44C | 0.234
U6G G44A | 0.229
C5U G13U | 0.157
C5U G13A | 0.417
U6G A10G | 0.644
U6G A10C | 0.136
U6A C19G | 0.0747
U6A C19U | 0.539
U6A C19A | 0.0793
U6A G16U | 0.43
U6A G16A | 0.604
U6A G16C | 0.135
U6C A23G | 0.0715
U6C A23C | 0.0308
U6A A34G | 0.731
U6A A34C | 0.859
C5U C27G | 0.0666
C5U C27A | 0.21
G7A G28C | 0.227
G7A G28A | 0.215
U6C A34U | 0.333
U6C A34C | 0.18

Variant | self-cleavage
U6C A34G | 0.788
G7C C15U | 0.0844
U6A G47C | 0.296
U6A G47A | 0.862
U6A G47U | 0.441
U6C A22G | 0.0819
U6C A22C | 0.691
G7C A40G | 0.0675
U6C G42A | 0.0608
G7A G36C | 0.113
G7A G36U | 0.108
G7A A23G | 0.0819
U6G G39A | 0.12
U6A G36A | 0.168
U6A G36C | 0.136
U6G C9A | 0.279
U6C G36C | 0.112
G7A G41C | 0.143
G7A G41A | 0.122
U6A C9A | 0.153
U6A C9U | 0.223
C5U G48A | 0.639
C5U G48U | 0.82
U6C C9A | 0.0857

Variant | self-cleavage
G7A U12A | 0.441
U6C G48U | 0.607
U6C G48C | 0.829
G7A C21G | 0.0478
U6C G24U | 0.0929
U6G A35G | 0.281
C5U G44A | 0.748
C5U G44U | 0.816
G7C A23G | 0.13
G7C A23C | 0.0613
U6A U37A | 0.142
U6A A30C | 0.428
U6A A30G | 0.884
U6G G17A | 0.075
U6G G17C | 0.0484
U6G G17U | 0.0541
U6C G44U | 0.502
U6C A10G | 0.809
C5U U12G | 0.763
C5U U12C | 0.769
U6G G36A | 0.0942
U6G G13C | 0.078
U6G G13A | 0.086
U6G G13U | 0.0456

Variant | self-cleavage
U6C U31G | 0.422
U6C U31C | 0.712
U6C U31A | 0.581
U6G C26U | 0.0975
U6G C26A | 0.0837
U6C G28C | 0.215
U6C G28U | 0.295
U6C G28A | 0.319
U6A G48C | 0.84
U6C C27G | 0.0742
U6C C27U | 0.275
U6G G41U | 0.129
U6G G41A | 0.156
G7A G13A | 0.0834
G7A G13U | 0.0584
G7A G13C | 0.0492
U6A C20U | 0.82
U6G C25U | 0.252
U6G C25G | 0.0804
U6A G29C | 0.335
G7A C19U | 0.122
G7A C19G | 0.0847
U6C C25A | 0.108
U6G C46A | 0.411

Variant | self-cleavage
U6G C46U | 0.632
U6G C46G | 0.406
G7A C8G | 0.153
G7A C8U | 0.0616
G7A C8A | 0.0866
U6C C14U | 0.473
U6C C14A | 0.504
C5U G7U | 0.0676
C5U G7A | 0.147
C5U G7C | 0.0595
U6C G7U | 0.0403
U6G G48U | 0.308
G7A C46U | 0.579
G7A C46G | 0.414
G7A G48A | 0.26
G7A G48C | 0.457
G7A G48U | 0.381
U6A C14U | 0.795
U6A C14A | 0.866
G7C | 0.0658
G7A | 0.615
C5U G39C | 0.171
U6G G47C | 0.179
U6G G47A | 0.179

Variant | self-cleavage
C5U C21G | 0.0614
U6G G29A | 0.19
U6G G29C | 0.139
U6G A32C | 0.419
U6G A32G | 0.337
U6A A33C | 0.949
U6A A33U | 0.828
U6C A40C | 0.11
U6C A40U | 0.119
U6G G43C | 0.13
U6G G43A | 0.144
U6A U31A | 0.717
U6A U31C | 1.07
U6A U31G | 1.01
G7A A30C | 0.108
G7A A30U | 0.425
C5U C19A | 0.145
C5U C19U | 0.819
G7A C9G | 0.0915
G7A C9A | 0.0651
G7A G43U | 0.152
U6C G16U | 0.371
U6C A33G | 0.429
U6C U12C | 0.613

Variant | self-cleavage
U6C U12A | 0.663
U6C U12G | 0.465
U6A A10C | 1.19
C5U G36C | 0.785
C5U G36A | 0.852
U6A A40G | 0.178
U6A A40C | 0.15
G7C C8A | 0.0479
C5U C25G | 0.149
C5U C25U | 0.507
G7A G42A | 0.176
G7A G42C | 0.258
U6A G24A | 0.116
G7C C21A | 0.0462
G7A A35C | 0.493
U6C A35G | 0.832
U6C A35U | 0.619
U6C A30G | 0.477
U6C A30C | 0.0653
U6C G17U | 0.072
G7A A34G | 0.111
G7A A34C | 0.118
C5U G43U | 0.2
C5U G43C | 0.126

Variant | self-cleavage
U6G A33C | 0.367
U6A C21U | 0.0948
U6A C21G | 0
U6A C21A | 0.107
U6G C27G | 0.0245
U6G C27U | 0.186
U6G C27A | 0.0375
U6A A11C | 0.61
U6A A11G | 0.897
G7A A33U | 0.269
C5U G29U | 0.631
C5U G29C | 0.454
U6G G24C | 0.356
U6G G24U | 0.145
C5U G38A | 0.695
C5U G38U | 0.503
C5U G38C | 0.581
G7C C20A | 0.0744
G7C A22G | 0.0331
G7C A22U | 0.0623
G7C C14G | 0.0351
G7C C14A | 0.0617
U6C U18A | 0.0773
G7A C14A | 0.371

Variant | self-cleavage
U6G A40U | 0.181
U6G A40C | 0.0854
U6A G42A | 0.198
U6A G42U | 0.163
C5U G16U | 0.459
U6C U37G | 0.181
G7C A11G | 0.106
U6A G7U | 0.101
U6A G7A | 0.224
U6C C15G | 0.1
U6C C46G | 0.589
U6C C46U | 0.625
C5U C14U | 0.68
G7A G38U | 0.168
U6A C25U | 0.718
U6A C25G | 0.121
U6A C25A | 0.0712
U6G G42A | 0.0807
U6G G7A | 0.501
U6G G7U | 0.626
G7A G47A | 0.271
U6G U37C | 0.159
U6G U37A | 0.112
U6G U37G | 0.196

Variant | self-cleavage
C5U U31A | 0.577
C5U U31G | 0.65
C5U U31C | 0.804
G7C A30G | 0.0729
U6G G38C | 0.168
U6G G38A | 0.315
U6C G45U | 0.495
U6C G45C | 0.206
U6C G45A | 0.6
G7A G24C | 0.0973
G7A G24A | 0.0655
U6C C21G | 0.109
U6C C21A | 0.0427
U6A G45A | 0.911
U6A G45C | 0.254
G7A G16U | 0.161
G7A G16C | 0.084
G7A G16A | 0.226
G7C C19A | 0.0521
G7C C19U | 0.0513
U6G C21G | 0.116
U6C G29C | 0.173
U6A G28U | 0.604
U6G C15U | 0.569

Variant | self-cleavage
U6G C15A | 0.301
C5U C46A | 0.764
G7A U18C | 0.0816
G7A U18G | 0.066
G7A U18A | 0.0724
C5U U18A | 0.186
C5U U18G | 0.066
U6C G41C | 0.13
U6C G41U | 0.113
U6C G41A | 0.117
G7A G17C | 0.0766
U6C C19A | 0.104
G7A C26A | 0.0788
G7A U31A | 0.599
U6G C8G | 0.2
U6G C8U | 0.16
C5U G47A | 0.727
C5U G47C | 0.315
C5U G47U | 0.691
U6G A30C | 0.246
U6C C26U | 0.0774
U6G C19A | 0.0816
U6G C19U | 0.264
U6G C19G | 0

Variant | self-cleavage
U6A G13U | 0.129
U6A A22G | 0.0598
G7C C9A | 0.0747
U6A C26U | 0.237
U6G A22C | 0.485
U6G A22G | 0.106
U6A C8G | 0.106
U6A G43U | 0.245
U6A G43C | 0.172
U6C C20G | 0.0668
C5U U6C | 0.691
G7A A40G | 0.157
U6G U18G | 0.0678
G7A G29A | 0.325
U6A A32C | 0.753
U6C C8A | 0.047
U6C C8G | 0.0656
G7A C25U | 1.09
C5U G28A | 0.572
G7A A32G | 0.323
G7A A32C | 0.38
G7A A32U | 0.507
